Data as given in the supplement of paper PMC9170038.

What was measured:
[1] = system: MS2 coat protein; test: apparent KD of MS2 coat protein; higher = weaker reporter binding; details: Eterna round: R101
Method: (§1)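 RNA-MaP: designed FMN/MS2 RNA switches (84 nt design region) are transcribed on-chip within common flanks and titrated with SNAP-549-labelled MS2 coat protein (about 1-3000 nM) in 100 mM Tris pH 7.5, 80 mM KCl, 4 mM MgCl2, without or with 200 uM FMN. Median apparent KD per design; activation ratio = KD,OFF / KD,ON.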

[2] = system: MS2 coat protein; test: apparent KD of MS2 coat protein; designed switch direction (-1 OFF switch, 1 ON switch): -1; higher = weaker reporter binding; details: Eterna round: R98
Method: as §1

Row | Sequence | apparent KD of MS2 coat protein ([1]; input ligand: FMN 200 uM) | apparent KD of MS2 coat protein ([1]; input ligand: none) | apparent KD of MS2 coat protein ([2]; input ligand: FMN 200 uM) | apparent KD of MS2 coat protein ([2]; input ligand: none)
1 | AAAGAUUUUCAAGGAUAUGACUCCGAAACGGAGUCAGAAGGUGAGGAUCACCCACCUAGCUCAGCGUCGAAAGACGCUGAGCAA [#SharedSequence ExNG1 - 27] (puzzle (switch architecture): Exclusion NG 1) | 103 nM | 13.5 nM |  | 
2 | AAAUAAAUCGAAGGAUAUGACCCUCGAGGUGACUAAAAGUCACCUCGAGGGUCAGAAGGUCGAGGAUCACCCGAUCUAAAUAAA [#SharedSequence SLExNG1: 2-1] (puzzle (switch architecture): Small Loop Exclusion NG 1) | 259 nM | 16.2 nM |  | 
3 | AAUAAUCUUUAAGGAUAUGACUCCGAAACGGAGUCAGAAGGUGAGGAUCACCCAUCUAGCUCAGGGUCGAAAGACCCUGAGCAA [#SharedSequence - ExNG1-11] (puzzle (switch architecture): Exclusion NG 1) | 101 nM | 49.6 nM |  | 
4 | ACAGGUCGUGAGAAGGCGUGUGGCACCGUCGAAAGACGGUGCAAUUAAAAUCUUCGAGGAUCACCCGAGGAUAUCACGACCUGA [#SharedSequence - IExNG2: 19] (puzzle (switch architecture): Inverted Exclusion NG 2) | 32.2 nM | 12.2 nM |  | 
5 | AGACCUGCUCAGAAGGCGGGUGCGAGGCUGGAAACAGCCUCGAAUUAAAAUCUUCGAGGAUCACCCGAGGAUAUGAGCAGGUCA [#SharedSequence - IExNG2: 16] (puzzle (switch architecture): Inverted Exclusion NG 2) | 19 nM | 54.2 nM |  | 
6 | AGAGCCUCGUGAGGAUAUACAUGAGGAUCACCCAUGUAAUAGGAUGAACGGAGGAAACUCCGAAUGUAGAAGGCACGAGGCUCA [Exclusion NG 2/11-B1] |  |  | 686 nM | 74.5 nM
7 | AUCAGCUCGUCAGGAUAUACGUCACUGCGUCAGCAGUGUGGUAAGAUCACAUGAGGAUCACCCAUGUAGAAGGGACGAGCUGAU [#MiniMS2Turnoff - Ex NG2 #82] (puzzle (switch architecture): Exclusion NG 2) | 273 nM | 13.7 nM |  | 
8 | CGCUCGCCGAGAGGAUAUGCAUUGGUGGGCGGUCCUGAACAUGAGGAUCACCCAUGUAUCAGUAAGCAGAAGGCUUGGUAGACG [Usesreed] |  |  | 16.5 nM | 20.1 nM
9 | CGGGAUACGAAGGGCGAAAGCCCACAUGAGGAUCACCCAUGUAGAAGGCGGGCCGCAACGCGGCCCGAGGAUAUACAGUAUCCA [#my 5th design] (puzzle (switch architecture): Inverted Exclusion NG 3) | 10.5 nM | 5.72 nM |  | 
10 | GGUCGACCUCAAGGAUAUGGACUGCAAAGCAGUCCAGAAGGUGAGGAUCACCCAUCUACGGUCAGGAAACUGACCGAUCGACCA [#SharedSequence - ExNG1-6] (puzzle (switch architecture): Exclusion NG 1) | 914 nM | 308 nM |  | 
11 | GGUGUUAACACAGGAUAUCUGCGUAAACAGCGCGGAGAAGGGUGGGUGACCAAGGACACAUGAGGAUCACCCAUGUACCCUUAA [Timadier] (puzzle (switch architecture): Same State NG 1) | 184 nM | 72.7 nM |  | 
12 | GGUUGUUACGCAGGAUAUUGCCAACAGGCAGUAGGAUAUCCGAAAGGAGAAGGACCGCCAACAGGCGAGAAGGGCGGGUUAACC [pwkr exNG2 2xF7 2FMN.10.4] |  |  | 48.3 nM | 35.4 nM
13 | GUCACGGUUAAUUCCGUGACGCGCAAACCUUGAGGAUCACCCAAGGAUAUCGACGUCAAUGACGUCGAGAAGGUGGUUGAGCGC [#SharedSequence] (puzzle (switch architecture): Exclusion NG 3) | 95.6 nM |  |  | 
14 | GUCAGCUCGUGAGGAUAUACAUCACUGCUUCGGCAGUGUAUUAAGAUAACAUGAGGAUCACCCAUGUAGAAGGCACGAGCUGAU [#MS2NeighbourBaseDeletion - ENG2/2-A2] (puzzle (switch architecture): Exclusion NG 2) | 8.5 nM | 5.49 nM |  | 
15 | UAAAUAAAUCCUAGAGGAUCACCCUAGGAUAUCACCGUCGAGGUGCCAUAAUGGCACCUCGACGGUGAGAAGGAGGGUAAUAAA [#SharedSequence - SLExNG3: 1-1] (puzzle (switch architecture): Small Loop Exclusion NG 3) | 29.3 nM | 13.8 nM |  | 
16 | UAAAUAAAUCCUAGAGGAUCACCCUAGGAUAUGAGGCUGCACCUCGGAUAAUCCGAGGUGCAGCCUCAGAAGGAGGAAAAUAAA [#SharedSequence - SLExNG3: 4-2] (puzzle (switch architecture): Small Loop Exclusion NG 3) | 7.71 nM | 8.16 nM |  | 
17 | UAAAUAAAUCCUAGAGGAUCACCCUAGGAUAUGAGGCUGCACCUCGGAUAAUCCGAGGUGCAGCCUCAGAAGGAGGUUGAUAAA [#SharedSequence - SLExNG3: 6-2] (puzzle (switch architecture): Small Loop Exclusion NG 3) | 11.8 nM | 10.5 nM |  | 
18 | UAUAUUUAGGCAGGAUAUACAUGUAUAUAUAAUUUUUUAUAUAUUAUUACAUGAGGAUCACCCAUGUAGAAGGGCCUUAUUAUA [LRO040_Exclusion NG 2] |  |  | 62.9 nM | 51.2 nM
19 | UGUUGUUACGCAGGAUAUUGCCAACAGGCGGUAGGAUAUCCGAAAGGAGAAGGAUCGCCAACAGGCGAGAAGGGCGGGUUAACA [pwkr exNG2 2xF7 2FMN.10.3] |  |  | 26.7 nM | 21.3 nM
20 | UUUUUUUUUUUUUACGCUUUGCGACGAGAAGGUACACAUGAGGAUCACCCAUGUCGAUUGGGAGGUAAGGAUAUUGGAUUGCGU [Inverted Small Loop Same State NG 3 Solution, Uracil-heavy] (puzzle (switch architecture): Inverted Small Loop Same State NG 3) | 0.483 nM | 18.4 nM |  | 
